Source: the supplement of paper PMC10065799, “High-throughput profiling of sequence recognition by tyrosine kinases and SH2 domains using bacterial peptide display” (eLife, 2023)

molecular target: Grb2 SH2 (UniProt P62993); experiment: SH2 binding enrichment of the phosphorylated peptide, bacterial display (enrichment ratio); higher = better substrate or ligand; peptides without Tyr show the background
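Throughout, for SH2 binding enrichment of the phosphorylated peptide, bacterial display: peptide library displayed on the E. coli surface as eCPX fusions, selected cells deep-sequenced, score is each peptide's frequency after selection divided by its frequency in the input.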
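Throughout, for phosphorylation enrichment, bacterial display: 11-residue human phosphosite peptides and single-mutation variants displayed on the E. coli surface, counted by deep sequencing, each peptide's frequency after selection divided by its frequency in the unselected input library; frequency after pTyr selection over input frequency; kinase dosed for 20-30% of maximal phosphorylation in three min.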

Grb2 SH2, sequence (P62993 whole entry, looked up, the tested form may be a part): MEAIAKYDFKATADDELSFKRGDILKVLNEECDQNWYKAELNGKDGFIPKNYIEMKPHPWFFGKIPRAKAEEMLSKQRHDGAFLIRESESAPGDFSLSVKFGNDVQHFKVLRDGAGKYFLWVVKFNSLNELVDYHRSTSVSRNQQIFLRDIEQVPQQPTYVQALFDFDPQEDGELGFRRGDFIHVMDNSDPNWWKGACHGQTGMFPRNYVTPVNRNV

Row | Sequence | SH2 binding enrichment
1 | VHNLDYFKETT [FGFR3_Y647_K650E_YF] | 1.11
2 | TCFDKYTGNTF [FN1_Y101_YF] | 0.625
3 | IHTDAYVRAMT [RPE65_Y89_R85H] | 0.76
4 | YCRITYDIFPF [INTS13_Y67_M66T] | 0.847
5 | LFIGQYSGKKE [L1CAM_Y1229_S1224L] | 0.924
6 | KVDKECEVRVR [GHR_Y226_Y226C] | 0.889
7 | WRRLIYRCQVG [NR2E3_Y81_R76W] | 0.939
8 | IQKWEYVPLGP [FAH_Y244] | 0.834
9 | EWKNNYPRLRE [OPA1_Y582] | 0.738
10 | RLPNGYGLAFR [DLK1_Y262_S260N_YF] | 0.988
11 | ATARPYSPYII [LRP5_Y1528_R1529S] | 0.838
12 | HKLSFNEFDFE [BTK_Y40_Y40N_YF] | 0.789
13 | HLDRSYSYSYS [PEAR1_Y890_R885H] | 0.889
14 | KLVRLYAVVTR [LYN_Y306] | 1.1
15 | HFVDEYDPTIE [KRAS_Y32] | 0.786
16 | ISKQEYDEAGP [ACTC1_Y364] | 0.921
17 | RIFDYYSARKT [STOX1_Y858_A863T] | 0.701
18 | GANSEYIIAEK [ECHS1_Y35_F33S] | 1
19 | DRLASYLDKLR [KRT12_Y139_V143L] | 0.876
20 | PNRILYGDFWQ [MYH6_Y717_R721W] | 0.807
21 | LEFNEYFRDLN [HPRT1_Y198_D194E_YF] | 0.926
22 | IDQDKYAVRFI [FLNA_Y2388] | 0.865
23 | RGRSTCYWPRP [GAGE12J_Y9_Y9C] | 0.642
24 | LTTEAYEWEPR [ELMOD3_Y61] | 0.744
25 | ETGNLYIAKVE [CNTN4_Y180] | 0.705
26 | QNTVDYYDLYG [PTPN11_Y62_G60V] | 0.892
27 | EAAFVYAISSA [WNT4_Y113] | 0.684
28 | HKLSFYEFDFE [BTK_Y40_YF] | 0.911
29 | VFAPDYIAGVS [NOB1_Y366] | 0.927

molecular target: c-Src SH2; experiment: as above

Row | Sequence | SH2 binding enrichment
30 | VHNLDYFKETT [FGFR3_Y647_K650E_YF] | 0.457
31 | TCFDKYTGNTF [FN1_Y101_YF] | 0.412
32 | IHTDAYVRAMT [RPE65_Y89_R85H] | 0.451
33 | YCRITYDIFPF [INTS13_Y67_M66T] | 1.42
34 | LFIGQYSGKKE [L1CAM_Y1229_S1224L] | 0.843
35 | KVDKECEVRVR [GHR_Y226_Y226C] | 0.575
36 | WRRLIYRCQVG [NR2E3_Y81_R76W] | 0.366
37 | IQKWEYVPLGP [FAH_Y244] | 0.656
38 | EWKNNYPRLRE [OPA1_Y582] | 0.453
39 | RLPNGYGLAFR [DLK1_Y262_S260N_YF] | 0.699
40 | ATARPYSPYII [LRP5_Y1528_R1529S] | 0.619
41 | HKLSFNEFDFE [BTK_Y40_Y40N_YF] | 0.471
42 | HLDRSYSYSYS [PEAR1_Y890_R885H] | 1.53
43 | KLVRLYAVVTR [LYN_Y306] | 0.869
44 | HFVDEYDPTIE [KRAS_Y32] | 0.575
45 | ISKQEYDEAGP [ACTC1_Y364] | 6.16
46 | RIFDYYSARKT [STOX1_Y858_A863T] | 0.534
47 | GANSEYIIAEK [ECHS1_Y35_F33S] | 0.435
48 | DRLASYLDKLR [KRT12_Y139_V143L] | 0.545
49 | PNRILYGDFWQ [MYH6_Y717_R721W] | 0.467
50 | LEFNEYFRDLN [HPRT1_Y198_D194E_YF] | 0.488
51 | IDQDKYAVRFI [FLNA_Y2388] | 0.54
52 | RGRSTCYWPRP [GAGE12J_Y9_Y9C] | 0.658
53 | LTTEAYEWEPR [ELMOD3_Y61] | 0.823
54 | ETGNLYIAKVE [CNTN4_Y180] | 0.276
55 | QNTVDYYDLYG [PTPN11_Y62_G60V] | 0.816
56 | EAAFVYAISSA [WNT4_Y113] | 0.568
57 | HKLSFYEFDFE [BTK_Y40_YF] | 3.27
58 | VFAPDYIAGVS [NOB1_Y366] | 0.544

molecular target: SHP2-C SH2; experiment: as above

Row | Sequence | SH2 binding enrichment
59 | VHNLDYFKETT [FGFR3_Y647_K650E_YF] | 0.668
60 | TCFDKYTGNTF [FN1_Y101_YF] | 0.98
61 | IHTDAYVRAMT [RPE65_Y89_R85H] | 0.914
62 | YCRITYDIFPF [INTS13_Y67_M66T] | 0.791
63 | LFIGQYSGKKE [L1CAM_Y1229_S1224L] | 0.745
64 | KVDKECEVRVR [GHR_Y226_Y226C] | 0.842
65 | WRRLIYRCQVG [NR2E3_Y81_R76W] | 0.561
66 | IQKWEYVPLGP [FAH_Y244] | 0.558
67 | EWKNNYPRLRE [OPA1_Y582] | 0.55
68 | RLPNGYGLAFR [DLK1_Y262_S260N_YF] | 0.932
69 | ATARPYSPYII [LRP5_Y1528_R1529S] | 0.764
70 | HKLSFNEFDFE [BTK_Y40_Y40N_YF] | 0.456
71 | HLDRSYSYSYS [PEAR1_Y890_R885H] | 1.2
72 | KLVRLYAVVTR [LYN_Y306] | 2.41
73 | HFVDEYDPTIE [KRAS_Y32] | 0.666
74 | ISKQEYDEAGP [ACTC1_Y364] | 0.718
75 | RIFDYYSARKT [STOX1_Y858_A863T] | 0.849
76 | GANSEYIIAEK [ECHS1_Y35_F33S] | 0.487
77 | DRLASYLDKLR [KRT12_Y139_V143L] | 0.582
78 | PNRILYGDFWQ [MYH6_Y717_R721W] | 0.666
79 | LEFNEYFRDLN [HPRT1_Y198_D194E_YF] | 0.743
80 | IDQDKYAVRFI [FLNA_Y2388] | 0.696
81 | RGRSTCYWPRP [GAGE12J_Y9_Y9C] | 0.714
82 | LTTEAYEWEPR [ELMOD3_Y61] | 0.64
83 | ETGNLYIAKVE [CNTN4_Y180] | 0.533
84 | QNTVDYYDLYG [PTPN11_Y62_G60V] | 0.502
85 | EAAFVYAISSA [WNT4_Y113] | 0.745
86 | HKLSFYEFDFE [BTK_Y40_YF] | 0.846
87 | VFAPDYIAGVS [NOB1_Y366] | 0.755

molecular target: Hck (UniProt P08631); experiment: phosphorylation enrichment, bacterial display (enrichment ratio); higher = better substrate or ligand; peptides without Tyr show the background
Sequence (P08631 whole entry, looked up): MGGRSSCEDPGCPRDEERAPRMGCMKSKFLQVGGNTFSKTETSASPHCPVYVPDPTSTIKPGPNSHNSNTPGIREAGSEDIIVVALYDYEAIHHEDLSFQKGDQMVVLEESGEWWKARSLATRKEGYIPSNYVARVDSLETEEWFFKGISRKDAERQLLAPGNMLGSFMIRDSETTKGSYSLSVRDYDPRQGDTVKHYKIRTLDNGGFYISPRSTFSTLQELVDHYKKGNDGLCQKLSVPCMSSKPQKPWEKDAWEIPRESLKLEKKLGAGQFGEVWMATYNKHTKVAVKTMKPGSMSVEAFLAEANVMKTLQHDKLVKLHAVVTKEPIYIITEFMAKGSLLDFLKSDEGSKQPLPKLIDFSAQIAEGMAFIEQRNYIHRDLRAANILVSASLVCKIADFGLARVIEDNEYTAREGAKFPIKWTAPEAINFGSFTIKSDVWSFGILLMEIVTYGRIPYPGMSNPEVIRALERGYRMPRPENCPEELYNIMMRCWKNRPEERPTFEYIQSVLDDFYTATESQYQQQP

Row | Sequence | phosphorylation enrichment
88 | VHNLDYFKETT [FGFR3_Y647_K650E_YF] | 0.446
89 | TCFDKYTGNTF [FN1_Y101_YF] | 0.567
90 | IHTDAYVRAMT [RPE65_Y89_R85H] | 0.397
91 | YCRITYDIFPF [INTS13_Y67_M66T] | 2.72
92 | LFIGQYSGKKE [L1CAM_Y1229_S1224L] | 1.02
93 | KVDKECEVRVR [GHR_Y226_Y226C] | 0.414
94 | WRRLIYRCQVG [NR2E3_Y81_R76W] | 0.424
95 | IQKWEYVPLGP [FAH_Y244] | 0.48
96 | EWKNNYPRLRE [OPA1_Y582] | 0.441
97 | RLPNGYGLAFR [DLK1_Y262_S260N_YF] | 0.62
98 | ATARPYSPYII [LRP5_Y1528_R1529S] | 0.456
99 | HKLSFNEFDFE [BTK_Y40_Y40N_YF] | 0.918
100 | HLDRSYSYSYS [PEAR1_Y890_R885H] | 0.424
101 | KLVRLYAVVTR [LYN_Y306] | 0.49
102 | HFVDEYDPTIE [KRAS_Y32] | 0.828
103 | ISKQEYDEAGP [ACTC1_Y364] | 0.616
104 | RIFDYYSARKT [STOX1_Y858_A863T] | 0.982
105 | GANSEYIIAEK [ECHS1_Y35_F33S] | 0.587
106 | DRLASYLDKLR [KRT12_Y139_V143L] | 0.472
107 | PNRILYGDFWQ [MYH6_Y717_R721W] | 2.16
108 | LEFNEYFRDLN [HPRT1_Y198_D194E_YF] | 0.828
109 | IDQDKYAVRFI [FLNA_Y2388] | 0.524
110 | RGRSTCYWPRP [GAGE12J_Y9_Y9C] | 0.736
111 | LTTEAYEWEPR [ELMOD3_Y61] | 0.943
112 | ETGNLYIAKVE [CNTN4_Y180] | 0.479
113 | QNTVDYYDLYG [PTPN11_Y62_G60V] | 6.03
114 | EAAFVYAISSA [WNT4_Y113] | 1.38
115 | HKLSFYEFDFE [BTK_Y40_YF] | 0.989
116 | VFAPDYIAGVS [NOB1_Y366] | 0.651
